# In paper PMC3726423:
# Tests used:
# L7Ae [1] = molecular target: T1, L7Ae (Pyrococcus abyssi, UniProt P62008 1-123); assay: footprinting (Pb2+); K-loop KTa/KTb protected; EMSA: 150 mM KCl, 1.5 mM MgCl2, 0.2 mM EDTA, 20 mM HEPES pH 7.9, 65 C 10 min, 50 fmol sRNA, 200 nM proteins (Kd: 50-400 nM aCBF5); fluorescence: 300 mM NaCl, 25
# L7Ae [2] = molecular target: T1, L7Ae; assay: footprinting (Pb2+); K-loop KTa/KTb protected; A34-U35 enhanced; EMSA: 150 mM KCl, 1.5 mM MgCl2, 0.2 mM EDTA, 20 mM HEPES pH 7.9, 65 C 10 min, 50 fmol sRNA, 200 nM proteins (Kd: 50-400 nM aCBF5); fluorescence: 300 mM NaCl, 25
Binder,binding result (L7Ae [1]),binding result (L7Ae [2])
Pab91 H/ACA sRNA (structured_RNA) RNA: GGGUAAUGCCCCUCCCCUCUCACACCUCCGGGAUCAGUGACCGGAGGGCGGUCGGGGAGGGGACACCU,binds,
Pab21 H/ACA sRNA (structured_RNA) RNA: GGGGAUGGGCCCGGCUCCCGCCCUCUCCGGGGAAUCGUGAACCGGGGGUUCCGGCCGGGCCUACAGU,,binds
